Laboratory results reported in PMC3314968, “The UBAP1 Subunit of ESCRT-I Interacts with Ubiquitin via a SOUBA Domain” (Structure(London, England:1993), 2012).

Target: T1, monoubiquitin (SIGMA U6253) (UniProt P0CG48 1-76)
T1 construct: ubiquitin, the 76-residue cut product of a ubiquitin precursor; source: bought: SIGMA U6253
Test: ITC; Microcal ITC200; 20 mM Tris-HCl (pH 7.5), 100 mM NaCl, 1 mM TCEP; SOUBA domain at 150 μM in the cell, 38 injections of monoubiquitin at 3 mM; single set of independent sites
Details: both partners purified

Kd: ~70 µM
B1: human UBAP1 SOUBA domain (389-502), wild-type (domain or fragment, UniProt Q9NZ09 389-502, looked up)
chain: SPSERQCVETVVNMGYSYECVLRAMKKKGENIEQILDYLFAHGQLCEKGFDPLLVEEALEMHQCSEEKMMEFLQLMSKFKEMGFELKDIKEVLLLHNNDQDNALEDLMARAGAS
notes: UBAP1, human, residues 389-502 (SOUBA domain); The His6 tag is followed by a TEV protease cleavage site; whether it was cut is told in the Supplemental Experimental Procedures; Used unlabeled or 15N- (13C/15N-) labeled in NMR; also called UBAP1(389-502); UBAP1_389-502; source: recombinant, from the pOPTH(tev) expression vector, purified (details in Supplemental Experimental Procedures)
